Measurements taken from patent publication US20130196336A1.
Each block holds one binder with its values, some of them ahead of it.

Columns and labels:
[1] = target: serum IgA of the coeliac disease patients that displayed reactivity towards both TG2 and TG6 (Example 5); experiment: anti-TG6 IgA ELISA after preincubation of sera with 22.4 µg/ml soluble TG2
[2] = target: serum IgA of the gluten ataxia with enteropathy patients that displayed reactivity towards both TG2 and TG6 (Example 5); experiment: as above
[3] = target: serum IgA of the coeliac disease patients that displayed reactivity towards both TG2 and TG6 (Example 5); experiment: anti-TG2 IgA ELISA after preincubation of sera with 22.4 µg/ml soluble TG2
[4] = target: serum IgA of the gluten ataxia with enteropathy patients that displayed reactivity towards both TG2 and TG6 (Example 5); experiment: as above
[5] = target: serum IgG of coeliac disease patient CD1; experiment: inhibition ELISA: serum preincubated with 50 µg/ml soluble TG2, then TG2-coated plate, IgG detection
[6] = target: serum IgA of coeliac disease patient CD1; experiment: inhibition ELISA: serum preincubated with 50 µg/ml soluble TG2, then TG2-coated plate, IgA detection
[7] = target: serum IgA of gluten ataxia with enteropathy patient GAE 16; experiment: inhibition ELISA: serum preincubated with soluble TG2, then TG2-coated plate, IgA detection
[8] = target: serum IgA of gluten ataxia with enteropathy patient GAE 16; experiment: inhibition ELISA: serum preincubated with soluble TG6, then TG2-coated plate, IgA detection
[9] = target: serum IgA of the coeliac disease patients that displayed reactivity towards both TG2 and TG6 (Example 5); experiment: anti-TG6 IgA ELISA after preincubation of sera with 22.4 µg/ml soluble TG6
[10] = target: serum IgA of the gluten ataxia with enteropathy patients that displayed reactivity towards both TG2 and TG6 (Example 5); experiment: as above
[11] = target: serum IgA of the coeliac disease patients that displayed reactivity towards both TG2 and TG6 (Example 5); experiment: anti-TG2 IgA ELISA after preincubation of sera with 22.4 µg/ml soluble TG6
[12] = target: serum IgA of the gluten ataxia with enteropathy patients that displayed reactivity towards both TG2 and TG6 (Example 5); experiment: as above

mean inhibition (%) [1]: 18%
mean inhibition (%) [3]: 37%
percent blocked [5]: 93%
percent blocked [6]: 52%
B1: recombinant human transglutaminase 2 with N-terminal hexahistidine-tag (enzyme)
chain: HHHHHHAEELVLERCDLELETNGRDHHTADLCREKLVVRRGQPFWLTLHFEGRNYEASVDSLTFSVVTGPAPSQEAGTKARFPLRDAVEEGDWTATVVDQQDCTLSLQLTTPANAPIGLYRLSLEASTGYQGSSFVLGHFILLFNAWCPADAVYLDSEEERQEYVLTQQGFIYQGSAKFIKNIPWNFGQFEDGILDICLILLDVNPKFLKNAGRDCSRRSSPVYVGRVVSGMVNCNDDQGVLLGRWDNNYGDGVSPMSWIGSVDILRRWKNHGCQRVKYGQCWVFAAVACTVLRCLGIPTRVVTNYNSAHDQNSNLLIEYFRNEFGEIQGDKSEMIWNFHCWVESWMTRPDLQPGYEGWQALDPTPQEKSEGTYCCGPVPVRAIKEGDLSTKYDAPFVFAEVNADVVDWIQQDDGSVHKSINRSLIVGLKISTKSVGRDEREDITHTYKYPEGSSEEREAFTRANHLNKLAEKEETGMAMRIRVGQSMNMGSDFDVFAHITNNTAEEYVCRLLLCARTVSYNGILGPECGTKYLLNLNLEPFSEKSVPLCILYEKYRDCLTESNLIKVRALLVEPVINSYLLAERDLYLENPEIKIRILGEPKQKRKLVAEVSLQNPLPVALEGCTFTVEGAGLTEEQKTVEIPDPVEAGEEVKVRMDLLPLHMGLHKLVVNFESDKLKAVKGFRNVIIGPA
mean inhibition (%) [2]: 14%
mean inhibition (%) [4]: 55%
percent blocked [7]: 6%

mean inhibition (%) [9]: 71%
mean inhibition (%) [11]: 1%
B2: recombinant human transglutaminase 6 with C-terminal hexahistidine-tag (enzyme, UniProt O95932 1-706, looked up, part only)
chain: MAGIRVTKVDWQRSRNGAAHHTQEYPCPELVVRRGQSFSLTLELSRALDCEEILIFTMETGPRASEALHTKAVFQTSELERGEGWTAAREAQMEKTLTVSLASPPSAVIGRYLLSIRLSSHRKHSNRRLGEFVLLFNPWCAEDDVFLASEEERQEYVLSDSGIIFRGVEKHIRAQGWNYGQFEEDILNICLSILDRSPGHQNNPATDVSCRHNPIYVTRVISAMVNSNNDRGVVQGQWQGKYGGGTSPLHWRGSVAILQKWLKGRYKPVKYGQCWVFAGVLCTVLRCLGIATRVVSNFNSAHDTDQNLSVDKYVDSFGRTLEDLTEDSMWNFHVWNESWFARQDLGPSYNGWQVLDATPQEESEGVFRCGPASVTAIREGDVHLAHDGPFVFAEVNADYITWLWHEDESRERVYSNTKKIGRCISTKAVGSDSRVDITDLYKYPEGSRKERQVYSKAVNRLFGVEASGRRIWIRRAGGRCLWRDDLLEPATKPSIAGKFKVLEPPMLGHDLRLALCLANLTSRAQRVRVNLSGATILYTRKPVAEILHESHAVRLGPQEEKRIPITISYSKYKEDLTEDKKILLAAMCLVTKGEKLLVEKDITLEDFITIKVLGPAMVGVAVTVEVTVVNPLIERVKDCALMVEGSGLLQEQLSIDVPTLEPQERASVQFDITPSKSGPRQLQVDLVSPHFPDIKGFVIVHVATAK
modifications: full-length C-terminal His6 tag
percent blocked [8]: 37%
mean inhibition (%) [10]: 61%
mean inhibition (%) [12]: 15%
